Columns and labels:
[1] = biological target: Cetuximab (Selleck Chemicals A2000); test: cross-linking; photo-crosslinking through BpA in PpL: 50-100 uM PpL construct with 1-4 uM antibody in PBS pH7.6, 365 nm light (6.4 mW/cm^2) up to 1 h; products reduced with DTT and read on SDS-PAGE
[2] = biological target: mouse IgG1 kappa anti-CD3 antibody (clone UTH1, BD bioscience 555329) (mouse); test: as above

| Substance | photoconjugation yield (by gel) [1] [%] | yield of conjugated to un-conjugated light chain (by gel intensity) [2] [%] |
| --- | --- | --- |
| PpL-R33BpA with linker arm and Sortase A recognition site (PpL with the sortase site only) (designed binder) | 75 |  |
| PpL-R33BpA (PpL-linker-FLAG construct with BpA at R33) (designed binder) |  | 30 |

Source: paper PMC9741643
